Results: IntAct's records for PubMed 29892012

How the values were obtained:
traf2_human TRAF2 = biological target: T1, traf2_human TRAF2 (UniProt Q12933)
T1 sequence: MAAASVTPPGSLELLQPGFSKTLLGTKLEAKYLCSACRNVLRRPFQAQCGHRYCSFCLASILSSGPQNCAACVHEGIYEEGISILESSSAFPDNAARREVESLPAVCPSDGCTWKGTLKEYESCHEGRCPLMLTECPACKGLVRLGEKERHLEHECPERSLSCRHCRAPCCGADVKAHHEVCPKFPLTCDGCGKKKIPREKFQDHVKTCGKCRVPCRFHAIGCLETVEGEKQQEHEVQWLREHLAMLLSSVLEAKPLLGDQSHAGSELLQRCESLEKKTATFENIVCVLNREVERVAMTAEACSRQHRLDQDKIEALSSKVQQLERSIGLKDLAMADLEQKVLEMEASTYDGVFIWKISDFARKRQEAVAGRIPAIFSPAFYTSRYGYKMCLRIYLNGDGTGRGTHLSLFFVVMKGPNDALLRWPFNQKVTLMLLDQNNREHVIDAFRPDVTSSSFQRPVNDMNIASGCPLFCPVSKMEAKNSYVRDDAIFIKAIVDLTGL

rpia_human RPIA = rpia_human RPIA (UniProt P49247)
itf2_human TCF4 = itf2_human TCF4 (UniProt P15884)
acy3_human ACY3 = biological target: T2, acy3_human ACY3 (UniProt Q96HD9)
T2 sequence: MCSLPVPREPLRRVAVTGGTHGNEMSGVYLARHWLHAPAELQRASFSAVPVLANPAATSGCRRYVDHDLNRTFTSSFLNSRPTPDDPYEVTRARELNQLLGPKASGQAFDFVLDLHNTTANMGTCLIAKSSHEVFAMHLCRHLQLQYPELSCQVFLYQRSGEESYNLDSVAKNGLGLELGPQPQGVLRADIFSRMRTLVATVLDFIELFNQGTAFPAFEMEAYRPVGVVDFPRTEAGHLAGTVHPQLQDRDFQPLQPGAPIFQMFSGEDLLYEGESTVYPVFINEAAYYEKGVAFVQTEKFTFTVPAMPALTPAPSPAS

drc12_human DRC12 = drc12_human DRC12 (UniProt Q494R4)
nup62_human NUP62 = nup62_human NUP62 (UniProt P37198)
ei2ba_human EIF2B1 = biological target: T3, ei2ba_human EIF2B1 (UniProt Q14232)
T3 sequence: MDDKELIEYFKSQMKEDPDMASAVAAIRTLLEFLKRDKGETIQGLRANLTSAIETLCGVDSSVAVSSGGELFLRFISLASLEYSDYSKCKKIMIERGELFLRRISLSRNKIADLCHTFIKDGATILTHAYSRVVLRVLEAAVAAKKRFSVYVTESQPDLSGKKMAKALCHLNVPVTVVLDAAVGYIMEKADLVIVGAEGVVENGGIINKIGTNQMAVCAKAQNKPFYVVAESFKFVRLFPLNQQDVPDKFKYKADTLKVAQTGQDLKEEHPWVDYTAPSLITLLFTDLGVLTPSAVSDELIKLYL

prps1_human PRPS1 = biological target: T4, prps1_human PRPS1 (UniProt P60891)
T4 sequence: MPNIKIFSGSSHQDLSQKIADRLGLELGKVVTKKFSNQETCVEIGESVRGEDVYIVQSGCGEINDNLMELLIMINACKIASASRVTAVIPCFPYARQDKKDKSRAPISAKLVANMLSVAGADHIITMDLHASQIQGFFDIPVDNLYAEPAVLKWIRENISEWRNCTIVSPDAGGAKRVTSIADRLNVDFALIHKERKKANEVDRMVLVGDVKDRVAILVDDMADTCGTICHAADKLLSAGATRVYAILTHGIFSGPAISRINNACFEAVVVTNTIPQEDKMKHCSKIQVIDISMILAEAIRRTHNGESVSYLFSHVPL

zbt14_human ZBTB14 = biological target: T5, zbt14_human ZBTB14 (UniProt O43829)
T5 sequence: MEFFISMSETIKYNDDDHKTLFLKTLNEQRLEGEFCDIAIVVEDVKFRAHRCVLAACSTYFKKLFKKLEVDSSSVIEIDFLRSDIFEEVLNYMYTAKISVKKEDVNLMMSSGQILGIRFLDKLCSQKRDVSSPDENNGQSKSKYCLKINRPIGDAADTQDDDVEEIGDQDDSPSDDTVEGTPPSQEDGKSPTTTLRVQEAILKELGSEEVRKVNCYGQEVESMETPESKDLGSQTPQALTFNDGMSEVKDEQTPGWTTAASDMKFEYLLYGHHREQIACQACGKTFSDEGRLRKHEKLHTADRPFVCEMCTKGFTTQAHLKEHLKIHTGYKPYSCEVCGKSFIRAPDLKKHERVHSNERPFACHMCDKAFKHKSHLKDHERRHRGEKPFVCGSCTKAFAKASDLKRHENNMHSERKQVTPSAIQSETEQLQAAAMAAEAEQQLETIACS

prdx3_human PRDX3 = biological target: T6, prdx3_human PRDX3 (UniProt P30048)
T6 sequence: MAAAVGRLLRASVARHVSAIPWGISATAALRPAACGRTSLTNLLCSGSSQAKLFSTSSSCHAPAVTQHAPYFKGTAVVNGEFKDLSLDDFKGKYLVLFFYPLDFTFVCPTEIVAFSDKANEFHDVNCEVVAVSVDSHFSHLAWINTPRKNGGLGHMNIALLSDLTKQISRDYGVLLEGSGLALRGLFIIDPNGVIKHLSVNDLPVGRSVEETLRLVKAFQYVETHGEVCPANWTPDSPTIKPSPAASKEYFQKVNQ

traf4_human TRAF4 = biological target: T7, traf4_human TRAF4 (UniProt Q9BUZ4)
T7 sequence: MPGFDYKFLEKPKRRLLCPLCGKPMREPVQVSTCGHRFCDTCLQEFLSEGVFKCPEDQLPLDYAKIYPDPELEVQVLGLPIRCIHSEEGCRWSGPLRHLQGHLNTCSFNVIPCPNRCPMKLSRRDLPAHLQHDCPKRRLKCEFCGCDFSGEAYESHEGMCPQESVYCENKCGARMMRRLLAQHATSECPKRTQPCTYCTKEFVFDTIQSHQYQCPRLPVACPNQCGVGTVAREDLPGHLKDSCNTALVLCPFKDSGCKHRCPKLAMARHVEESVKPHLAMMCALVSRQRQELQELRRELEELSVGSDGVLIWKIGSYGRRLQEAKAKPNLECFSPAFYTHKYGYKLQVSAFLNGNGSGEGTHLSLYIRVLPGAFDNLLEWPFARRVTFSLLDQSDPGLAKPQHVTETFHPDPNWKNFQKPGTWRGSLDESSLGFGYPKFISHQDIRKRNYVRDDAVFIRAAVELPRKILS

rpia_human RPIA, sequence (P49247 whole entry): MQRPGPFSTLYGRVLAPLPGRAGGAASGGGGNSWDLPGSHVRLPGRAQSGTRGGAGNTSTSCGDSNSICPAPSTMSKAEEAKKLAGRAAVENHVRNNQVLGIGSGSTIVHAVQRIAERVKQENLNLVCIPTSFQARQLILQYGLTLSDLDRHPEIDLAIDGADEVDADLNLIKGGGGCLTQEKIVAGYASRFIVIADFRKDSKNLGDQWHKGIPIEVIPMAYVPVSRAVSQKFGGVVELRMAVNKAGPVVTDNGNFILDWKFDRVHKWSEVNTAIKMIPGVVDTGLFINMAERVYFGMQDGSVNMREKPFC
nup62_human NUP62, sequence (P37198 whole entry): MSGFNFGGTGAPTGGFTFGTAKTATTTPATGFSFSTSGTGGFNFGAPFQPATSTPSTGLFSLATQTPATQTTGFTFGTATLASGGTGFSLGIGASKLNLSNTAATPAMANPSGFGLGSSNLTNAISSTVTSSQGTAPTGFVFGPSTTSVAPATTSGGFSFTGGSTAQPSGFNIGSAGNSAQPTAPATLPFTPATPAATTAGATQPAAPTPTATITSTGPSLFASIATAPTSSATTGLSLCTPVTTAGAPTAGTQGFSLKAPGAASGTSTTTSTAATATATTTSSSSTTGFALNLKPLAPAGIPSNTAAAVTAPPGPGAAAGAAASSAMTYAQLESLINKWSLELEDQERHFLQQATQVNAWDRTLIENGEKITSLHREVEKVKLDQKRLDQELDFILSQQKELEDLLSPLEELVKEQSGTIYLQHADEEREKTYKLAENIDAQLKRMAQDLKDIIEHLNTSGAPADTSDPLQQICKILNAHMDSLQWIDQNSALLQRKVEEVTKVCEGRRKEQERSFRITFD
drc12_human DRC12, sequence (Q494R4 whole entry): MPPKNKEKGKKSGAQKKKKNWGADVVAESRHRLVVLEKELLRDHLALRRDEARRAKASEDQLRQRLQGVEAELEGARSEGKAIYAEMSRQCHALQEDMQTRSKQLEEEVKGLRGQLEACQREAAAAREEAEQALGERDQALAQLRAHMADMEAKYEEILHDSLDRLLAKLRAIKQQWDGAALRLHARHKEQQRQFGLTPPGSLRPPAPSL
itf2_human TCF4, sequence (P15884 whole entry): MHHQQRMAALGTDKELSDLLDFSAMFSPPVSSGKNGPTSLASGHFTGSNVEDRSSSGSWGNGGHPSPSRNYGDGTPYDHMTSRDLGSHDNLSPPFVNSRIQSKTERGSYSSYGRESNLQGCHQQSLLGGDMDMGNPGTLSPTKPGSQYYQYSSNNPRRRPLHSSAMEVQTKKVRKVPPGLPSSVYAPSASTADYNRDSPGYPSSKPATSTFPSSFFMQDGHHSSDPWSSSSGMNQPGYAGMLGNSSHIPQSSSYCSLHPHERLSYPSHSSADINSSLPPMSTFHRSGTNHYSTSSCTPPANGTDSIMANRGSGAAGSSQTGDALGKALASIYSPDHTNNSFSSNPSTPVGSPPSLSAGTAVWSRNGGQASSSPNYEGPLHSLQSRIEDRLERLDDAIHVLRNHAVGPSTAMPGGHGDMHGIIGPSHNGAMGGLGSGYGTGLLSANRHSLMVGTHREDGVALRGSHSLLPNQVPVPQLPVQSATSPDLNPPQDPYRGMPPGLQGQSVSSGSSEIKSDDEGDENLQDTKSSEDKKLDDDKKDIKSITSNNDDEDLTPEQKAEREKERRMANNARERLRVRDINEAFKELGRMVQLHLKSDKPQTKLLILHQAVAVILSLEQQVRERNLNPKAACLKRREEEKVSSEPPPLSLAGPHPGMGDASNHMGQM

effect of a mutation on the interaction (traf2_human TRAF2): with no effect
effect of a mutation on the interaction (rpia_human RPIA): with no effect
effect of a mutation on the interaction (itf2_human TCF4): with no effect
effect of a mutation on the interaction (acy3_human ACY3): disrupting interaction strength
effect of a mutation on the interaction (drc12_human DRC12): with no effect
effect of a mutation on the interaction (nup62_human NUP62): disrupting interaction strength
effect of a mutation on the interaction (ei2ba_human EIF2B1): with no effect
effect of a mutation on the interaction (prps1_human PRPS1): with no effect
effect of a mutation on the interaction (zbt14_human ZBTB14): with no effect
effect of a mutation on the interaction (prdx3_human PRDX3): disrupting interaction strength
effect of a mutation on the interaction (traf4_human TRAF4): with no effect
Substance: Golgi reassembly-stacking protein 2 (Homo sapiens) (from UniProt Q9H8Y8) L320R
